This passage reports EC50 results from US20150344580A1 (published 2015).

For assay [1], the target named is T1, human chemokine receptor CCR7 (UniProt P32248 25-378).
T1 chain: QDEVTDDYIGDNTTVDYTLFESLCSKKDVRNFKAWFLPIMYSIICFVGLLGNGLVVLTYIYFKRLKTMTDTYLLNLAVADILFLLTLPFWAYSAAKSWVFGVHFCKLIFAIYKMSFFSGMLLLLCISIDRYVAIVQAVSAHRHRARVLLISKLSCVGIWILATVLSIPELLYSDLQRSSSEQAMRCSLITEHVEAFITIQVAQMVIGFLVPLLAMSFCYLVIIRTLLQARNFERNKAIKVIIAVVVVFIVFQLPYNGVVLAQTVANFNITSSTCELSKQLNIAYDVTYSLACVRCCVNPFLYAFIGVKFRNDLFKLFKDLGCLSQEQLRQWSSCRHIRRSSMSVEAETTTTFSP
In words: FACS cell binding; after pH stress (2hr).

The target of assay [2] is T1, human chemokine receptor CCR7. Put plainly: FACS cell binding; after pH stress (3hr).
The target is the same in assay [3]. Put plainly: FACS cell binding; after temperature stress.
For assay [4] the target is unchanged. In words: FACS cell binding; after pH stress (2hr).
The target is the same in assay [5]. Put plainly: FACS cell binding; after pH stress (3hr).

B1: MSM R707 in IgG4 format (antibody, V domains shown)
VH: EVQLLESGGGLVQPGGSLRLSCAASGFTFSNYAIHWVRQAPGKGLEWVSAITPRGGYTYYADSVKGRFTISRDNSKNTLYLQMNSLRAEDTAVYYCARGLTMMYTPGMDYWGQGTLVTVSS
VL: not shown
For the molecule B1, the EC50 in assay [1] is roughly 9.4 nM; in assay [2] it was roughly 9.1 nM; in assay [3], roughly 6 nM.

B2: MSM R735 in IgG4 format (antibody, V domains shown)
VH: EVQLLESGGGLVQPGGSLRLSCAASGFTFSNYNMHWVRQAPGKGLEWVSGIGPRRGRTYYADSVKGRFTISRDNSKNTLYLQMNSLRAEDTAVYYCARSYAYQYRGLDYWGQGTLVTVSS
VL: EIVLTQSPGTLSLSPGERATLSCRASQSVSSSYLAWYQQKPGQAPRLLIYGASSRATGIPDRFSGSGSGTDFTLTISRLEPEDFAVYYCQQGSPVTFGQGTKVEIKR
Consider B2, for which the EC50 in assay [4] is roughly 4.6 nM; in assay [5] it was roughly 7.6 nM.
